Laboratory results reported in article PMC10113255, “PHF14 enhances DNA methylation of SMAD7 gene to promote TGF-β-driven lung adenocarcinoma metastasis”.

Molecular target: T1, PHF14 ePHD domain E430A K435A (Homo sapiens, UniProt O94880 382-499, E430A;K435A)
T1 sequence: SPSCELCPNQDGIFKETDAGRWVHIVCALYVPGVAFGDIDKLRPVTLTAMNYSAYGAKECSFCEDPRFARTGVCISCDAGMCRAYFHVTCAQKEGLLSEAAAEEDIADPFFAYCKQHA
Assay: SPR; protein immobilized on CM5; SPR: HBS-P (10 mM HEPES pH 7.4, 150 mM NaCl, 0.05% P20), 25 °C, 1:1 Langmuir fit; EMSA: LightShift kit protocol, 0.5x TBE native PAGE, buffer not stated
Details: protein: recombinant; tags: His (EMSA, purification method); FLAG (SPR); label: biotin (EMSA); blunt

B1: CG-rich probe, unmethylated (dsDNA)
DNA 1: ACGGCTCGTCGCTACGGCTCGTCGCT
DNA 2: AGCGACGAGCCGTAGCGACGAGCCGT
Kd: 275 nM
